Measurements: the Human Domainome abundance scans (Beltran et al. 2025)
± gives the uncertainty stated by the source.

B1: Protein C-ets-1, residues 55 to 135; numbered along this chain, P14921 (parent)
chain: GFTKEQQRLGIPKDPRQWTETHVRDWVMWAVNEFSLKGVDFQKFCMNGAALCALGKDCFLELAPDFVGDILWEHLEILQKE
B2: Transcription factor SOX-11, residues 50 to 117; numbered along this chain, P35716 (parent)
chain: KRPMNAFMVWSKIERRKIMEQSPDMHNAEISKRLGKRWKMLKDSEKIPFIREAERLRLKHMADYPDYK

Variants of: B1
Assay: abundance fitness (aPCA) (normalised: wild type 0, dead -1); higher = more abundant; growth selection in yeast, the domain comes from the species named
Details: Homo sapiens

Abundance fitness of substitutions, site by site:
D69: P 0.015 ± 0.049 | H -0.153 ± 0.083 | V -0.098 ± 0.041 | Y -0.038 ± 0.089
E81: D -0.003 ± 0.26
A63: H -0.096 ± 0.051 | C 0.02 ± 0.055 | D -0.873 ± 0.13 | I -0.038 ± 0.12 | P -1.01 ± 0.13 | T -0.134 ± 0.1 | S -0.114 ± 0.038 | N -0.399 ± 0.17 | V 0.007 ± 0.033 | G -0.262 ± 0.034 | M -0.115 ± 0.059 | R -0.924 ± 0.087 | W -0.014 ± 0.062 | Y -0.299 ± 0.11 | L -0.016 ± 0.032 | K -0.635 ± 0.096 | Q -0.282 ± 0.15
L71: A -1.15 ± 0.21 | N -0.128 ± 0.38 | F -0.697 ± 0.15 | K -0.978 ± 0.27 | R -0.979 ± 0.08 | V -1.05 ± 0.079 | T -0.883 ± 0.14 | M -0.176 ± 0.055 | W -0.946 ± 0.11 | G -0.932 ± 0.072 | C -0.834 ± 0.14 | D -0.657 ± 0.14 | S -0.805 ± 0.089 | P -0.891 ± 0.1 | E -0.881 ± 0.15 | Q -0.938 ± 0.17
H74: S -0.08 ± 0.04 | G -0.346 ± 0.042 | L -0.198 ± 0.039 | R -0.222 ± 0.026 | E -0.027 ± 0.064 | C -0.137 ± 0.054 | T -0.265 ± 0.053 | Q -0.02 ± 0.048 | Y -0.454 ± 0.12 | W -0.611 ± 0.071 | A -0.135 ± 0.066 | D -0.214 ± 0.074 | M -0.271 ± 0.09 | F -0.4 ± 0.093 | P -0.794 ± 0.068 | K -0.273 ± 0.13 | V -0.419 ± 0.039 | N -0.043 ± 0.062
I70: M -0.102 ± 0.063 | T -0.008 ± 0.041 | D -0.532 ± 0.099 | L -0.077 ± 0.037 | F -0.17 ± 0.055 | R -0.036 ± 0.025 | V -0.038 ± 0.043 | N -0.546 ± 0.096 | S -0.228 ± 0.037 | K -0.065 ± 0.066 | Y -0.146 ± 0.067 | A -0.105 ± 0.033 | P -0.289 ± 0.039 | C -0.088 ± 0.059 | W -0.398 ± 0.048 | Q -0.035 ± 0.059 | G -0.705 ± 0.054 | E -0.365 ± 0.052
G68: N -0.265 ± 0.09 | H -0.541 ± 0.15 | W -0.655 ± 0.087 | V -0.261 ± 0.026 | L -0.549 ± 0.045 | C -0.156 ± 0.094 | T -0.204 ± 0.052 | A -0.116 ± 0.032 | S -0.124 ± 0.036 | Q -0.727 ± 0.11 | K -0.678 ± 0.099 | E -0.994 ± 0.12 | Y -0.654 ± 0.13 | D -0.792 ± 0.12
E76: C -0.092 ± 0.051 | W -0.109 ± 0.051 | S -0.021 ± 0.037 | I -0.267 ± 0.13 | Y 0.029 ± 0.036 | R -0.072 ± 0.035 | M 0.04 ± 0.063 | N 0.057 ± 0.32 | T -0.14 ± 0.065 | Q -0.043 ± 0.062 | H -0.085 ± 0.091 | P -0.205 ± 0.058 | A -0.043 ± 0.044 | K -0.053 ± 0.09 | L -0.094 ± 0.043 | D -0.015 ± 0.059 | F -0.273 ± 0.078 | G -0.036 ± 0.033 | V -0.108 ± 0.045
W72: A -0.52 ± 0.053 | D -1.07 ± 0.38 | L -0.316 ± 0.033 | F -0.098 ± 0.062 | I -1.06 ± 0.46 | M -0.389 ± 0.078 | V -0.918 ± 0.086 | S -0.735 ± 0.062 | C -0.62 ± 0.067 | H -0.361 ± 0.084 | R -0.577 ± 0.038 | P -1.15 ± 0.23 | Y 0.11 ± 0.075 | Q -0.804 ± 0.11 | T -1 ± 0.19 | N -0.746 ± 0.2

Variants of: B2
Assay: as above
Details: Homo sapiens

Abundance fitness: each site, then its substitutions
K1: D 0.21 ± 0.059 | I -0.048 ± 0.062 | M -0.421 ± 0.2 | L -0.137 ± 0.11 | F 0.113 ± 0.076 | T 0.032 ± 0.082 | W 0.006 ± 0.2 | S -0.026 ± 0.067 | E 0.258 ± 0.17 | G 0.103 ± 0.058 | C -0.056 ± 0.075 | Y 0.032 ± 0.065 | N 0.077 ± 0.06
P3: K -0.044 ± 0.18 | N 0.199 ± 0.077 | F -0.292 ± 0.12 | D 0.525 ± 0.076 | I -0.279 ± 0.1 | A -0.544 ± 0.096 | C -0.442 ± 0.088 | L -0.118 ± 0.085 | E 0.073 ± 0.18 | M -0.704 ± 0.45 | Q 0.119 ± 0.21 | H -0.085 ± 0.077
R2: E -0.165 ± 0.15 | Y 0.272 ± 0.061 | A -0.178 ± 0.079 | K -0.041 ± 0.12 | L 0.037 ± 0.063 | V 0.118 ± 0.055 | I 0.113 ± 0.055 | Q 0.037 ± 0.14 | N 0.166 ± 0.059 | S 0.064 ± 0.047 | M 0.158 ± 0.096 | W -0.97 ± 0.34 | T 0.282 ± 0.061 | C 0.041 ± 0.054 | D 0.146 ± 0.069 | F 0.091 ± 0.075 | P -0.011 ± 0.085 | G 0.03 ± 0.049 | H 0.086 ± 0.077
